The record followed here is the Human Domainome abundance scans (Beltran et al. 2025).

Sequences and labels used below:
B1: E3 ubiquitin-protein ligase Midline-1, residues 172 to 214; numbered along this chain, O15344 (parent)
chain: GLMCLEHEDEKVNMYCVTDDQLICALCKLVGRHRDHQVAALSE

± gives the uncertainty stated by the source.

The series covers variants of B1. Briefly: abundance fitness (aPCA) (normalised: wild type 0, dead -1); higher = more abundant; growth selection in yeast, the domain comes from the species named. The conditions noted are these: Homo sapiens.
With GLMCLEHEDEKVNMYCVTDDQLICALCKLVTRHRDHQVAALSE, the abundance fitness is -0.333 ± 0.095.
To GLMCLEHEDEKVNMYCVTDDQLICALCKLVLRHRDHQVAALSE belongs -0.47 ± 0.067.
To GLMCLEHEDEKVNMYCVTDDQLICALCKLVARHRDHQVAALSE belongs -0.231 ± 0.058; to GLMCLEHEDEKVNMYCVTDDQLICALCKLVCRHRDHQVAALSE, -0.121 ± 0.084; to GLMCLEHEDEKVNMYCVTDDQLICALCKLVGRHRDHQVAALSA, -0.004 ± 0.064.
To GLMCLEHHDEKVNMYCVTDDQLICALCKLVGRHRDHQVAALSE belongs 0.056 ± 0.13.
Take GLMCLEHADEKVNMYCVTDDQLICALCKLVGRHRDHQVAALSE: the abundance fitness came out at 0.179 ± 0.054.
In the case of GLMCLEHEDEKVNMYCVTDDQLICALCKLSGRHRDHQVAALSE, the abundance fitness came to 0.114 ± 0.056.
For GLMCLEHEDEKVNMYCVTDDQLICALCKLPGRHRDHQVAALSE, the abundance fitness was found to be 0.022 ± 0.071.
To GLMCLEHEDEKVNMYCVTDDQLICALCKLEGRHRDHQVAALSE belongs 0.138 ± 0.064; to GLMCLEHEDEKVNMYCVTDDQLICALCKLHGRHRDHQVAALSE, 0.21 ± 0.064; to GLTCLEHEDEKVNMYCVTDDQLICALCKLVGRHRDHQVAALSE, -0.166 ± 0.093.
To GLMCLEHEDWKVNMYCVTDDQLICALCKLVGRHRDHQVAALSE belongs -0.247 ± 0.062; to GLMCLEHEDFKVNMYCVTDDQLICALCKLVGRHRDHQVAALSE, -0.136 ± 0.16; to GLMCLEHEDEKVNMYCVTDDQLICALCKLVGRHRDHQVAYLSE, -0.572 ± 0.26.
Turning to GLMCLEHEDEKVNMYCVTDDQLICALCKLVGRHRDHQVAPLSE, the abundance fitness worked out at 0.228 ± 0.089.
To GLMCLEHEDEKVNMYIVTDDQLICALCKLVGRHRDHQVAALSE belongs -0.127 ± 0.24; to GLMCLEHEDEKVNMYAVTDDQLICALCKLVGRHRDHQVAALSE, -0.569 ± 0.087; to GLMCLEHEDEKVNMYEVTDDQLICALCKLVGRHRDHQVAALSE, -0.185 ± 0.065.
Take GLMCLEHEDEKVNMYGVTDDQLICALCKLVGRHRDHQVAALSE: the abundance fitness was -0.291 ± 0.049.
Then GLMCLEHEDEKVFMYCVTDDQLICALCKLVGRHRDHQVAALSE, with 0.354 ± 0.19.
To GLMCLEHEDEKVQMYCVTDDQLICALCKLVGRHRDHQVAALSE belongs 0.005 ± 0.078.
Then GLMCLEHEDEKVNMYCVTDDQGICALCKLVGRHRDHQVAALSE, with 0.364 ± 0.063.
Turning to GLMCLEHEDEKVNMYCVTDDQVICALCKLVGRHRDHQVAALSE, the abundance fitness was -0.025 ± 0.074.
To GLMCLEHEDEKVNMYCVTDDQLICALCKLVGRWRDHQVAALSE belongs -1.01 ± 0.13; to GLMCLEHEDEKVNMYCVTDDQLICALCKLVGRFRDHQVAALSE, -0.528 ± 0.29.
Then GLMCLEHEDEKVNMYCVTDDQLICALCKLVGRKRDHQVAALSE, with -0.423 ± 0.14.
To GLMCLEHEDEKVNMYCVTDDQLICALCKLVGRSRDHQVAALSE belongs -0.718 ± 0.12; to GLMCLEHEDEKVNMYCVTDDQLICALCKLVGRGRDHQVAALSE, -0.478 ± 0.056; to GLMCLEHEDEKVNMYCVTDDQLICALCKLVGRVRDHQVAALSE, -0.882 ± 0.086.
On to GLMCLEHEDEKVNMYCVTDDQLICALCKLVGMHRDHQVAALSE, for which the abundance fitness was -0.219 ± 0.07.
To GLMCLEHEDEKVNMYCVTDDQLICALCKLVGWHRDHQVAALSE belongs -0.323 ± 0.075; to GLMCLEHEDEKVNMYCVTDDQLICALCKLVGDHRDHQVAALSE, -0.072 ± 0.08.
With GLMCLEHEDEKVNMYCVTDDQLICALCKLVGLHRDHQVAALSE, the abundance fitness is -0.058 ± 0.067.
To GLMCLEHEDEKVNMYCVTDDQLICALCKLVGRHRDHQVAASSE belongs 0.134 ± 0.057; to GLMCLEHEDEKVNMYCVTDDQLICALCKLVGRHRDHQVAAKSE, 0.161 ± 0.058.
GLMCLEHEDEKVNMYCVTDDQLICALCKLVGRHRDHQVAAISE: the abundance fitness was -0.082 ± 0.09.
In the case of GLMCLEHEDEKVNMYCVTDDQLICALCKLVGRHRDHQVAAGSE, the abundance fitness came out at 0.051 ± 0.048.
Turning to GLMCLEHEDEKVNMYCVTDDQLICALCKLVGRHRDHQVTALSE, the abundance fitness is 0.181 ± 0.068.
Then GLMCLEHEDEKVNMYCVTDDQLICALCKLVGRHRDHQHAALSE, with 0.082 ± 0.062; and GLMCLEHEDEKVNMYCVTDDQLICALCKLVGRHRDHQCAALSE, with 0.076 ± 0.088; and GLMCLEHEDEKVNMYCVTDDQLICALCKLVGRHRDHQDAALSE, with -0.131 ± 0.12.
For the variant GLMCLEHEDEKVNMYCVTDDQLICALCKLVGRHRDHQLAALSE, the abundance fitness is -0.035 ± 0.068.
Turning to GLMCLEHEDEKVNMYCVTDDQLICALCKLVGRHRDHQTAALSE, the abundance fitness is -0.233 ± 0.17.
To GLMCLEHEDEKVNMYCVTDDQLICALCMLVGRHRDHQVAALSE belongs -0.114 ± 0.07; to GLMCLEHEDEEVNMYCVTDDQLICALCKLVGRHRDHQVAALSE, 0.033 ± 0.07.
Then GLMCLEHEDEKVNMYCVTDSQLICALCKLVGRHRDHQVAALSE, with -0.038 ± 0.064; and GLMCLEHEDEKVNMYCVTDHQLICALCKLVGRHRDHQVAALSE, with -0.106 ± 0.11.
To GLMCLEHEDEKVNMYCVTDQQLICALCKLVGRHRDHQVAALSE belongs 0.099 ± 0.064.
GLMCLEHEDEKVNMYCVTDLQLICALCKLVGRHRDHQVAALSE: the abundance fitness is -0.404 ± 0.069.
Then GLMCLEHEDEKVNMYCVTDRQLICALCKLVGRHRDHQVAALSE, with -0.083 ± 0.05; and GLMCLEHEDEKVNMYCVTDDQLICALCKLVGRHSDHQVAALSE, with -0.066 ± 0.066.
GLMCLEHEDEKVNMYCVTDDQLICALCKLVGRHHDHQVAALSE: the abundance fitness turned out to be 0.25 ± 0.095.
As for GLMCLEHEDEKVNMYCVTDDQLICALCKLVGRHYDHQVAALSE, the abundance fitness is -0.544 ± 0.28.
In the case of GLMCLEHEDEKVNMYCVTDDQLICALCKLVGRHLDHQVAALSE, the abundance fitness is -0.376 ± 0.084.
In the case of GLMCLEHEDEKVNMYCVTDDQLICALCKLVGRHQDHQVAALSE, the abundance fitness turned out to be 0.088 ± 0.099.
As to GLMCLEHEDEKVNMYCVTDDQLICALCKLVGRHIDHQVAALSE, the abundance fitness came out at 0 ± 0.092.
Take GLMCLEHEDEKVNMYCVTDDWLICALCKLVGRHRDHQVAALSE: the abundance fitness was -0.682 ± 0.092.
Consider GLMCLEHEDEKVNMYCVTDDALICALCKLVGRHRDHQVAALSE, for which the abundance fitness stood at 0.003 ± 0.058.
